Source: publication PMC4530576
Read-outs that look alike come from different tables or passages of the source.

T1: Spen RRM domains (Spen RRMs) (UniProt Q96T58 335-620)
T1 sequence: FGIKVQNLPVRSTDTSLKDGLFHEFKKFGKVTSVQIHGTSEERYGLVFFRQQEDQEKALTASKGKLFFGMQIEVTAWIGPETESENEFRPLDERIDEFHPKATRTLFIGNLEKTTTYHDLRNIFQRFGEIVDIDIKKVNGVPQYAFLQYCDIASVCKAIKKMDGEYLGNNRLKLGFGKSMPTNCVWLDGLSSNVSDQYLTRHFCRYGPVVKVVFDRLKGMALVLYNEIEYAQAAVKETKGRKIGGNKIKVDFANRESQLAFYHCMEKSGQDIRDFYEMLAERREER

B1: H12-H13 SRA, synthetic (structured_RNA)
RNA: GCAGGUAUGUGAUGACAUCAGCCGACGCCUGGCACUGCUGCAGGAACAGUGGGCUGGAGGAAAGUUGUCAAUACCUGU
B2: XCR-XC dimer (Xist A-repeat dimer), synthetic (structured_RNA)
RNA: UUGCCCAUCGGGGCCUCGGAUACCUGCUUUAAAUUGCCCAUCGGGGCCUCGGAUACCUGCUUUAC

Assays:
[1] = biological target: T1, Spen RRM domains (Spen RRMs); test: EMSA
[2] = biological target: T1, Spen RRM domains (Spen RRMs); test: EMSA; remark: listed apart in the source

Binder	binding result [1]	binding result [2]
B1	binds	–
B2	–	binds
